# “Also recorded” adds a separate entry of the source.
# B1: sDSS1 protein: sDSS1 protein produced by the company itself, purity more than 95%; sequence of human sDSS1 protein is SEQ ID NO:1 (protein, listed as Homo sapiens)
# chain: MSEKKQPVDLGLLEEDDEFEEFPAEDWAGLDEDEDAHVWEDNWDDDNVEDDFSNQLRATVLLMILVCETPYGCYVLHQKGRMCSAFLCC
# Key:
# oxLDL = biological target: T1, oxLDL (Homo sapiens, UniProt P04114); test: Co-incubation with oxLDL, SDS-PAGE separation, Coomassie brilliant blue staining; type: binding
# T1 construct: purchased Solarbio H7980
# Experimental: Experimental materials: sDSS1 protein, sDSS1 mutant protein 1 (sDSS1-M1, SEQ ID NO: 15), sDSS1 mutant protein 2 (sDSS1-M2, SEQ ID NO: 16), oxidized low density lipoprotein (oxLDL) (Solarbio, Article No.: H7980); low density lipoprotein (LDL) (Solarbio, Article No.: H7960).
# Experimental method: 2 μg of oxLDL or LDL was mixed with 6 μg of sDSS1 protein or 10 μg of sDSS1 protein in a 1.5 ml EP tube in the presence of 20 mM sodium acetate/acetic acid buffer (pH 4.5) or 20 mM phosphate buffer (pH 7.2) respectively, and incubated at 37° C. for 12 h. A loading buffer was added in the incubated product and evenly mixed, and the obtained mixture was denatured at 100° C. for 10 min to prepare a loading sample. The resulting sample was subjected to electrophoretic separation via polyacrylamide gel electrophoresis (SDS-PAGE). After separation, the SDS-PAGE gel was stained with Coomassie brilliant blue to display protein strips. The sDSS1-M1 or sDSS1-M2 protein was respectively mixed and incubated with oxLDL, and treated in the same way. 15 μL of the sample was used for SDS-PAGE electrophoresis separation.
# ApoE−/− mice [1] = test: Atherosclerotic plaques of the aorta (en face oil red O staining) in high-fat diet ApoE−/− mice; type: in vivo; conditions: 13 weeks
# Experimental: FIGS. 15-16. The sDSS1 protein inhibits the formation of atherosclerotic plaques in ApoE−/− mice. […] At the end of the injection, the aorta was dissected for oil red O staining, and the area of plaques was calculated.
# Experimental animals: ApoE−/− mice, 8-week-old, male, were purchased from Nanjing Biomedical Research Institute of Nanjing University. The experimental animals were housed in an animal room for one week before the experiment.
# Experimental method: ApoE−/− mice were fed with high-fat diet containing 0.25% cholesterol starting from the age of 9 weeks. From the 10th week of high-fat diet feeding, the mice were randomly divided into three groups according to the total cholesterol level, with 10 mice in each group. […] At the 22nd week of high-fat diet feeding, that is, the 13th week of administration, the animals were executed and dissected, and the whole aorta was separated. The separated aorta was stained with en face oil red O to evaluate the formation of atherosclerotic plaques.
# ApoE−/− mice [2] = test: Plasma oxLDL and LDL levels (ELISA) in ApoE−/− mice after 7 days of administration; type: in vivo
# From the text: ApoE−/− mice were divided into two groups, the control group and the sDSS1 protein administration group. […] At the end of the administration, the plasma levels of oxLDL and LDL in mice were detected.
# Experimental animal: ApoE−/− mice, 8-10 weeks old, male, were purchased from Nanjing Biomedical Research Institute of Nanjing University. The animals were housed in an animal room for one week before the experiment.
# Experimental materials: sDSS1 protein, oxLDL ELISA kit (Wuhan Elabscience Biotechnology Co., Ltd., Article No.: E-EL-M0066c), LDL ELISA kit (Wuhan Elabscience Biotechnology Co., Ltd., product No.: E-EL-M1363c)
# Experimental method: the ApoE−/− mice were randomly divided into two groups, a control group and a sDSS1 protein group. For 7 days, 200 μl of normal saline was intraperitoneally injected in control group once a day, and 10 mg/kg of the sDSS1 protein was intraperitoneally injected in sDSS1 protein group once a day. After 7 days of administration, the bloods of mice were collected, and plasma was separated with EDTA-Na as an anticoagulant. The plasma oxLDL level was measured by using the oxLDL ELISA kit, and the plasma LDL level was measured by the LDL ELISA kit.
# 100 μl of oxLDL standards or samples were added in each well, and incubated for 90 min at 37° C.; the liquid in the well was discarded, 100 μl of biotinylated oxLDL antibody working liquid was added, and incubated at 37° C. for 60 min; washing 3 times; 100 μl of enzyme binding working solution was added, and incubated at 37° C. for 30 min; washing 5 times; 90 μl of substrate solution was added, and incubated at 37° C. for 15 min; 50 μl of termination solution was added, and the OD value was immediately measured at 450 nm wavelength; a standard curve was established with standard products, and the oxLDL level of each sample was calculated according to the standard curve.
# 100 μl of LDL standards or samples were added into each well, and incubated for 90 min at 37° C.; the liquid in the well was discarded, 100 μl of biotinylated LDL antibody working liquid was added, and incubated at 37° C. for 60 min; washing 3 times; 100 μl of enzyme binding working liquid was added, and incubated at 37° C. for 30 min; washing 5 times; 90 μl of substrate solution was added, and incubated at 37° C. for 15 min; 50 μl of termination solution was added, and the OD value was immediately measured at 450 nm wavelength; a standard curve was established by using standard products, and the LDL level of each sample was calculated according to the standard curve. The oxLDL/LDL ratio=oxLDL concentration (ng/ml)÷LDL concentration (ng/ml) 5.2 Experimental Results
# T1 sequence (P04114 28-4563): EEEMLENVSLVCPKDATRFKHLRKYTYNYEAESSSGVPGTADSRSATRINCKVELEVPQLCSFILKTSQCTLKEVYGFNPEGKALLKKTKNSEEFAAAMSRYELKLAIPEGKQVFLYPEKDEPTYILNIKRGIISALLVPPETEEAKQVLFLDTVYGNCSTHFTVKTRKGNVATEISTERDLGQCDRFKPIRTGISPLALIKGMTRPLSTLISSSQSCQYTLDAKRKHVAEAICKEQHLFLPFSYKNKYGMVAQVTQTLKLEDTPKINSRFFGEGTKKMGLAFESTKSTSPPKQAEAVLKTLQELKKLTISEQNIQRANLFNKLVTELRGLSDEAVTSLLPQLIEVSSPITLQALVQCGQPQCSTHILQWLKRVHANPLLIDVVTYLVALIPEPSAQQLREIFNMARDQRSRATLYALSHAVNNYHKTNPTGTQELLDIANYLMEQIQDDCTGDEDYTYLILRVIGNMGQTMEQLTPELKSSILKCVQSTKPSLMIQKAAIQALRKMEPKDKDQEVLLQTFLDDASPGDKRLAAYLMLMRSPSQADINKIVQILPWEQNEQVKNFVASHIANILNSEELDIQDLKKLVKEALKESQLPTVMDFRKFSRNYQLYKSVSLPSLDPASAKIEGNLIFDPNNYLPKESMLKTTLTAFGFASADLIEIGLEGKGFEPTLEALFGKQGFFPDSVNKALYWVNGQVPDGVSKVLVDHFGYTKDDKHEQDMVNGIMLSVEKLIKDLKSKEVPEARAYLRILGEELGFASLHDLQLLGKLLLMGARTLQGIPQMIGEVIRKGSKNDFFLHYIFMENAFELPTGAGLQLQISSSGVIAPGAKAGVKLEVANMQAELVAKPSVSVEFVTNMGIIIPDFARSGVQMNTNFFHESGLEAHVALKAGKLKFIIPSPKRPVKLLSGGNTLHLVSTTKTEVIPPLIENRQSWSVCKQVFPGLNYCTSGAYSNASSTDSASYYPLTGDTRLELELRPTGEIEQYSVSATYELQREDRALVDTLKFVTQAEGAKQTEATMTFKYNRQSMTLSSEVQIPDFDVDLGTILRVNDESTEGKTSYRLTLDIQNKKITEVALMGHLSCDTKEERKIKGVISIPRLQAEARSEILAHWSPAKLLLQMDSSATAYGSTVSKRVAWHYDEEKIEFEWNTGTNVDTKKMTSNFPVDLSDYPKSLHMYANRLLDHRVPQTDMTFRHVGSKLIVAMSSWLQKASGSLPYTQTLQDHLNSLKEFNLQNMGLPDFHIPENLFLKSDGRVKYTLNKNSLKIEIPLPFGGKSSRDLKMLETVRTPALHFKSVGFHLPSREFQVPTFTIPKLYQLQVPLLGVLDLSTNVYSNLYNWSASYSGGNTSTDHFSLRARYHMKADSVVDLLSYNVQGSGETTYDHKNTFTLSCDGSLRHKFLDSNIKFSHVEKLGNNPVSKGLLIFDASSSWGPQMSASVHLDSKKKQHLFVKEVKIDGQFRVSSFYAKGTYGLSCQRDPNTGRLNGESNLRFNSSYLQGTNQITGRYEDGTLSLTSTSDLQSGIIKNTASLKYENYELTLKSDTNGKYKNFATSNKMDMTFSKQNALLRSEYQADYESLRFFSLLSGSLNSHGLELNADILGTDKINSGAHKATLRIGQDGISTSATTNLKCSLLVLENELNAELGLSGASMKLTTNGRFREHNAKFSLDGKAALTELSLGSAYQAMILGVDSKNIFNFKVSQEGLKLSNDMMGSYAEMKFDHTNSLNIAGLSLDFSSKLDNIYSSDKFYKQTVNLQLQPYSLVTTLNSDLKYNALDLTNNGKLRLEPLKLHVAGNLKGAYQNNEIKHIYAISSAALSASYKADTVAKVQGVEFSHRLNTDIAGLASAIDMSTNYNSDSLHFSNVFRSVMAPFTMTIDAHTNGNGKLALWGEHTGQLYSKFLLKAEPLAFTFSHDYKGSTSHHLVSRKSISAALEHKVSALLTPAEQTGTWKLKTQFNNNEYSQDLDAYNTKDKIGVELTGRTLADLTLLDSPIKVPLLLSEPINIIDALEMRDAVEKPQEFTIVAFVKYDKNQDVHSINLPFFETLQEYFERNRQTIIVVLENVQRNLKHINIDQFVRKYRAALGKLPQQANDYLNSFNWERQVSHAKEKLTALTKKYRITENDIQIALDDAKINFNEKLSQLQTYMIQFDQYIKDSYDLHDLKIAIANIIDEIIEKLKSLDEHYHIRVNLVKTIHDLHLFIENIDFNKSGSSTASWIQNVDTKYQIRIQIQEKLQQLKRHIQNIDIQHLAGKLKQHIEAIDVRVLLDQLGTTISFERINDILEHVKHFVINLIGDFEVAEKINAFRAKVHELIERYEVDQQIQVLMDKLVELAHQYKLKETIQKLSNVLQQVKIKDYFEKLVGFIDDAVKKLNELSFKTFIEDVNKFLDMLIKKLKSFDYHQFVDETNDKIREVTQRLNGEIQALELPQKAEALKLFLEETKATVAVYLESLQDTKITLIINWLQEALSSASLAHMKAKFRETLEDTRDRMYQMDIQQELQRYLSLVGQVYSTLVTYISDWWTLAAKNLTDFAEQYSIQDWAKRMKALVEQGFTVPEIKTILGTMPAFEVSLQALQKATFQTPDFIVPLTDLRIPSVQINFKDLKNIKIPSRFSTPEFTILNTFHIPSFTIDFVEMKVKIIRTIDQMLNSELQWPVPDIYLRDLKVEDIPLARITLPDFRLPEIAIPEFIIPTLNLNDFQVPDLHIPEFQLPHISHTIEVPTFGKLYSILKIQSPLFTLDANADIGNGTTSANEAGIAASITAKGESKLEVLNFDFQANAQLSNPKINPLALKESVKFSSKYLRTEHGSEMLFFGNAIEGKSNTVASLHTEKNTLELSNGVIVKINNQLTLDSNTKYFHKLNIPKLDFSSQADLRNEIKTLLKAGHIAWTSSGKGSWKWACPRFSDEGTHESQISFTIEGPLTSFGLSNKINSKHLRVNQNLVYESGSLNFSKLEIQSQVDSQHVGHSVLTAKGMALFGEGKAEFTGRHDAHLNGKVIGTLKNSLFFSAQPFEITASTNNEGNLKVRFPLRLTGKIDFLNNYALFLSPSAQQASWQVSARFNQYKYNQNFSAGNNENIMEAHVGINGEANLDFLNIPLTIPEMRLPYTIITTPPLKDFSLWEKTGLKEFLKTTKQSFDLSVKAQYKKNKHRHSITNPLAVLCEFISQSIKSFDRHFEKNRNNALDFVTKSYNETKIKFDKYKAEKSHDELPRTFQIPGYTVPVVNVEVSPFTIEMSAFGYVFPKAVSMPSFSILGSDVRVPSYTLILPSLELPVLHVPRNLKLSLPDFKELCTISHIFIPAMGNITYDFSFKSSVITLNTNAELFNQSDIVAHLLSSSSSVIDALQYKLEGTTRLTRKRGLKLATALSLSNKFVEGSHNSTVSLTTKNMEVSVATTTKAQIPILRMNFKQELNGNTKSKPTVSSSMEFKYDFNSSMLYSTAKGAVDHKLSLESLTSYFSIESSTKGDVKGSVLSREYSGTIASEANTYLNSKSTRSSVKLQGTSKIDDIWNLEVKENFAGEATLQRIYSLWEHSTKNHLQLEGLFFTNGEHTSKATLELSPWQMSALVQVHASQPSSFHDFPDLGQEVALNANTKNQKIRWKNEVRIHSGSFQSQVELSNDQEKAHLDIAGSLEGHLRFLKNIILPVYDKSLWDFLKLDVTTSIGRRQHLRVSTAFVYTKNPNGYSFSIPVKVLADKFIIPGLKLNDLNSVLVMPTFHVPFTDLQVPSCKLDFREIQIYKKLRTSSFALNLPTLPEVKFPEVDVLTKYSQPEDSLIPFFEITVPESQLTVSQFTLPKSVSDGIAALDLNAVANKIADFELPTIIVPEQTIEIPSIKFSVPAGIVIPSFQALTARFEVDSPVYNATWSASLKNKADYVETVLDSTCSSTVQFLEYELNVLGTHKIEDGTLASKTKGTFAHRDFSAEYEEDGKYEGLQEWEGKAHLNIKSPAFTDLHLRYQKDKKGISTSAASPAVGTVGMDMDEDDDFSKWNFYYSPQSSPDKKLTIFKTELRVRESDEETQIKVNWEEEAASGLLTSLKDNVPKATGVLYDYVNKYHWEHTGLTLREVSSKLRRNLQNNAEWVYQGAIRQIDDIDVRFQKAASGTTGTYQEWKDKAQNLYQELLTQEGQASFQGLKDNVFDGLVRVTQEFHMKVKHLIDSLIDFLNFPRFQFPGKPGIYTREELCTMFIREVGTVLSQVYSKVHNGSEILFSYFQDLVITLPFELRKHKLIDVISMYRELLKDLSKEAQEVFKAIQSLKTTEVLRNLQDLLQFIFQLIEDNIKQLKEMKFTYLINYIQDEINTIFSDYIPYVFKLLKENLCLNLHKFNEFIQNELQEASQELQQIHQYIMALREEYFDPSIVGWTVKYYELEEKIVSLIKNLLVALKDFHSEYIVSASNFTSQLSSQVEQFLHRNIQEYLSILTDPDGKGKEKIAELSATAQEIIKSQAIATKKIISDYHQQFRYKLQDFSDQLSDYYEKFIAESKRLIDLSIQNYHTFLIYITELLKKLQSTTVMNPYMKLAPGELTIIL
molecule,measurement,setting,value
B1,Interaction with oxLDL (complex on SDS-PAGE gel),oxLDL; phosphate buffer pH 7.2,interacted with the sDSS1 protein; also recorded: resulted in interactions
same,Interaction with oxLDL (complex on SDS-PAGE gel),"oxLDL; sodium acetate/acetic acid buffer pH 4.5, 37° C., 12 h",interacted with the sDSS1 protein; also recorded: resulted in interactions
same,Area of atherosclerotic plaques (en face oil red O) vs model group,"ApoE−/− mice [1]; sDSS1 3 mg/kg intraperitoneal once a day, high-fat diet",significantly reduced
same,Plaque area ratio (oil red O stained area / total aortic area) vs model group,"ApoE−/− mice [1]; sDSS1 3 mg/kg intraperitoneal once a day, **P<0.01",significantly smaller
same,"Plaque area ratio, sDSS1 protein group vs positive drug group",ApoE−/− mice [1]; sDSS1 3 mg/kg vs ATV 40 mg/kg,no significant difference
same,Effect on plaque area in certain areas of the aorta vs positive drug,ApoE−/− mice [1]; sDSS1 3 mpk vs ATV 40 mpk,even better
same,Plasma LDL level vs control group,ApoE−/− mice [2]; sDSS1 10 mg/kg (10 mpk) intraperitoneal once a day,no significant difference; also recorded: did not cause significant changes
same,Plasma oxLDL/LDL ratio vs control group,ApoE−/− mice [2]; sDSS1 10 mg/kg intraperitoneal once a day,significantly lower
same,Plasma LDL level vs control group,ApoE−/− mice [2]; sDSS1 30 mg/kg (30 mpk) intraperitoneal once a day,did not cause significant changes
same,Plasma oxLDL level vs control group,"ApoE−/− mice [2]; sDSS1 30 mg/kg (30 mpk, high dose) intraperitoneal once a day",significantly reduced
same,Plasma oxLDL/LDL ratio vs control group,ApoE−/− mice [2]; sDSS1 high dose (30 mpk) intraperitoneal once a day,significantly lower

# Source: patent publication US12433934B2, “Methods and compositions for preventing and treating atherosclerosis and related diseases” (Shanghai Puyou Biomedical Co., Ltd., priority 2018, dated 2025)
